Data from patent US20090075340A1.

Molecular target: HLA-Cw4 on LCL 721.221-Cw4 cells (human)
Test: cell-based or functional assay

KIR2DL1 expressed on YTS-2DL1 NK cells (from UniProt P43626 22-348)
killing of LCL 721.221-Cw4 cells by YTS-2DL1 in the absence of any anti-KIR mAb: 5%
